The series concerns MS2 coat protein. Put plainly: apparent KD of MS2 coat protein; designed switch direction (-1 OFF switch, 1 ON switch): -1; higher = weaker reporter binding. The procedure, abridged:
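Transcription of designed RNA switches on Illumina chips was done by stalled E. coli RNA polymerase. SNAP-549-labelled MS2 coat protein was then titrated in doubling steps from 0.7 or 1.5 nM to 3 µM, with steps of 0.8–1.5 h at the lowest and 10–20 min at the highest concentration. The per-design median over clusters of curve-fitted normalised fluorescence is reported as apparent KD.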

Setting [1] is: input ligand: microRNA oligo, concentration not stated.
Where [2] appears, read: Eterna round: R95, input ligand: FMN 200 uM.
Where [3] appears, read: Eterna round: R95, input ligand: microRNA oligo, concentration not stated.
The mark [4] stands for this setting: Eterna round: R95, input ligand: none.

As to “ACAUGAGGAUCACCCAUGUGACCACGAUGGCUGAUGUAGAGCUAGGAUAUGUGUGAAUAUCUAUCACAGAAGGAGCUUGACUGG [Deportation 52 - Jieux - Exclusion NG 3] (Eterna round: R96, puzzle: Exclusion NG 3)”, the “apparent KD of MS2 coat protein” value worked out at 24.7 nM (input ligand: FMN 200 uM), 18.3 nM under setting [1] and 25.7 nM (input ligand: none).
Regarding “UCUCGGUAAGGAUAUGCGCCGGGAUGAAGAUCCCGAAGCAUGCAGAAGGUACAUGAGGAUCACCCAUGUCUGUU [Eternabot (L1) Solution 76] (Eterna round: R97, puzzle: Exclusion 4)”, the “apparent KD of MS2 coat protein” value runs as follows: (input ligand: FMN 200 uM) 47.2 nM; (input ligand: none) 20.5 nM.
For the sequence “CCUUUGUCAGGAUAUCGUGCAUACAACGAAAGUUCUAUGUGCGAGAAGGGACAUGAGGAUCACCCAUGUUACGG [Omei Ex4 A3] (Eterna round: R97, puzzle: Exclusion 4)”, the “apparent KD of MS2 coat protein” value worked out at 172 nM (input ligand: FMN 200 uM) and 368 nM (input ligand: none).
On to “CUAGAUCUUCGGAUCUAGUACAUGAGGAUCACCCAUGUGACGAGUUGAUCCUCAUACAAGCUUUUUGCUCGUCUUAU [Sensor v3 - Turn-off variant 1 - 16] (puzzle: Sensor v3, turn-off variant 1)”, for which the “apparent KD of MS2 coat protein” value under setting [2] was 19.3 nM, the “apparent KD of MS2 coat protein” value under setting [3] came out at 21.3 nM and the “apparent KD of MS2 coat protein” value under setting [4] came to 11.9 nM.
Turning to “CGAGCUCAUGUGAGGAUAUACCUAUGGAUACAUAGGUAGAAGGCACAUGAGGAUCACCCAUGUCCUUGAGCUCG [jl-bmx4-4.59 Eli mod] (Eterna round: R97, puzzle: Brourd's mod of Exclusion 4)”, the “apparent KD of MS2 coat protein” value is, setting by setting: (input ligand: FMN 200 uM) 309 nM; (input ligand: none) 50.4 nM.
On to “GACUAGGCAGGAUAUACAUGAGGAUCACCCAUGUGUCUGCGUUGGGCACGUGAACACCGUAGAAGGGCCUUGAC [ChP 13.04.2015 #14] (Eterna round: R96, puzzle: Exclusion 3)”, for which the “apparent KD of MS2 coat protein” value turned out to be 36.4 nM (input ligand: FMN 200 uM), 16.2 nM under setting [1] and 20.2 nM (input ligand: none).
With “GUGUACAGAGGAUAUACUUAUGGAGUCACGAAAGUGGCUUCACAUGAGGAUCACCCAUGUAGAAGGCUGUACAC [Dot plot directed v11] (puzzle: Exclusion 2)”, the “apparent KD of MS2 coat protein” value under setting [3] stood at 23.7 nM.
Regarding “GGGACCCUUGUAGGAUAUAGAACCGCAGGAGGUCUAGAAGGGCACUGGUCGCCGUGGACAUGAGGAUCACCCAUGUGUUUGCCC [Eternabot solution 36] (Eterna round: R96, puzzle: Exclusion NG 1)”, the “apparent KD of MS2 coat protein” value was determined as 55.2 nM (input ligand: FMN 200 uM), 40.2 nM under setting [1] and 52.4 nM (input ligand: none).
Regarding “AAUAACAGAGGAUAUACUAUUUUAUGUGUUUGUUGUUUUAAACAUGAGGAUCACCCAUGUAGAAGGCUGAAUAA [JMF 18] (puzzle: Exclusion 2)”, the “apparent KD of MS2 coat protein” value under setting [3] was 20 nM.
Regarding “AGUACUGGCGCGUCGGUGUUGGUACAAUAAGCUUGUGAAACAUGAGGAUCACCCAUGUCCUCAUAAGCUCGUCUUAU [salish99_TOv2_r2_083] (puzzle: Sensor v3, turn-off variant 2)”, the “apparent KD of MS2 coat protein” value came out at 16.9 nM under setting [2], 600 nM under setting [3] and 16.5 nM under setting [4].
For “AGCAAGUUAAGGUUGAUGCACAUGAGGAUCACCCAUGUUCGUCUUACAUGGAAAGUGGACGCGUUUAUGGAAAGGAG [Eternabot (L2) Solution 36] (Eterna round: R97, puzzle: Sensor, turn-off variant 1)”, the “apparent KD of MS2 coat protein” value (input ligand: FMN 200 uM) amounted to 28.2 nM and the “apparent KD of MS2 coat protein” value (input ligand: none) is 28.2 nM.
On to “AAACAAGAAGGAUAUACAUUAUCGGAUCUUCCGGCAAUGCCACAUGAGGAUCACCCAUGUAGAAGGUCUAAAUU [Ralabi] (puzzle: Exclusion 2)”, for which the “apparent KD of MS2 coat protein” value under setting [3] amounted to 12.3 nM.
Regarding “UUGAAGAUAGGAUAUACGAGGAGAGGAGAGAGAAGGUGAGGACAUGAGGAUCACCCAUGUAGAAGGAUCAGGAG [JR_Exclu2_Sub066] (puzzle: Exclusion 2)”, the “apparent KD of MS2 coat protein” value under setting [2] came out at 66.1 nM, the “apparent KD of MS2 coat protein” value under setting [3] is 86.9 nM and the “apparent KD of MS2 coat protein” value under setting [4] amounted to 84.9 nM.
The like results for “CUGAGCAGACGAAGAUCCAACAUGAGGAUCACCCAUGUCUCAAAAGCUUUUUGCUUGUCUUAUCCUUCCCUGCUCUC [Isbies] (puzzle: Sensor v3, turn-off variant 1)” were, in that order, 14.3 nM, 207 nM and 12.9 nM.
As to “AAUUAGCAAGCAAGAUCCCACAUGAGGAUCACCCAUGUGCUCGUCUUAUAAGGUACUGUGACGAAAGUCACGGUACC [Mat - Sensor, turn-off var - Eli Mod - D50] (Eterna round: R97, puzzle: Sensor, turn-off variant 1)”, the “apparent KD of MS2 coat protein” value reads like this: (input ligand: FMN 200 uM) 50.2 nM; (input ligand: none) 54.8 nM.
As to “UAAUACAAGCAAAGAUCCUACAUGAGGAUCACCCAUGUGCUCGUCUUGUAAAGUACUAUCACGAAAGUGAUAGUACA [Mat - Sensor v3 - turn-off var 1 - Eli Mod - D77] (puzzle: Sensor v3, turn-off variant 1)”, the “apparent KD of MS2 coat protein” value amounted to 41.2 nM under setting [2], 17.1 nM under setting [3] and 114 nM under setting [4].
For the sequence “GAUUAUGCGAGCUUUAGGGACAUGAGGAUCACCCAUGUUCGUCUUAUUGAUCUGGAUACACUAACAUACCUAAAUCU [JMF 13] (puzzle: Sensor v3, turn-off variant 1)”, the “apparent KD of MS2 coat protein” value is, setting by setting: under setting [2], 26.8 nM; under setting [3], 32.3 nM; under setting [4], 25.2 nM.
Turning to “CUGUGUAGACAGGAUAUGCUGUACAAAAGUACAGCAGAAGGGUCUACAUGAGGAUCACCCAUGUAUACUUCAUG [)mei Ex6 B24] (Eterna round: R97, puzzle: Exclusion 6)”, the “apparent KD of MS2 coat protein” value runs as follows: (input ligand: FMN 200 uM) 391 nM; (input ligand: none) 920 nM.
“AGAUCUAGGACAGGAUAUACUGAUGGCUUCAUCGAAGAUGAAGCCAUCACAUGAGGAUCACCCAUGUAGAAGGGUCCUAGAUCA [Omei Exc(NG) 2Av8] (Eterna round: R96, puzzle: Exclusion NG 2)”: the “apparent KD of MS2 coat protein” value under setting [1] amounted to 9.55 nM.
On to “UGAUUGUUUAACAGAUUAUACAUGAGGAUCACCCAUGUAGGUCCUACGUGCACAUUAUGCAGCUCGUCUUAUUCCCA [Sensor-V1 #72] (Eterna round: R97, puzzle: Sensor, turn-off variant 1)”, for which the “apparent KD of MS2 coat protein” value reads like this: (input ligand: FMN 200 uM) 35.5 nM; (input ligand: none) 37.3 nM.
As to “AUAUUGAUAGUAAGGAUAUGCGUGUGUGUAGUGAUGCAGAAGGUACAUGAGGAUCACCCAUGUAUUAAUGUGUG [LRO-BmodExc4-10-Oppy's Opus] (Eterna round: R97, puzzle: Brourd's mod of Exclusion 4)”, the “apparent KD of MS2 coat protein” value (input ligand: FMN 200 uM) is 20.5 nM and the “apparent KD of MS2 coat protein” value (input ligand: none) is 16.7 nM.
Turning to “AGUCGGCGAGGAUAUACAUGAGGAUCACCCAUGUGUGAUCCUAGACCUGUAGGUCCAUGUAGAAGGCGCUGACA [Exclusion 3 - Was a mod at one point] (puzzle: Exclusion 3)”, the “apparent KD of MS2 coat protein” value under setting [3] was found to be 18.8 nM.
Turning to “GGAACGACAGGAUAUACAUGAGGAUCACCCAUGUAAAGAAGAGUAAAAUGUGAAAGCGGUAGAAGGGUCAAGAA [AK-MS2ROC-r4-exclusion3-6] (Eterna round: R97, puzzle: Exclusion 3)”, the “apparent KD of MS2 coat protein” value by setting is: (input ligand: FMN 200 uM) 42.3 nM; (input ligand: none) 43.9 nM.
Regarding “GAGAGGAGUGUAGGAUAUUUAAGGGAGGAGGAGGGAGAAGGACAUGAGGAUCACCCAUGUAGGAAGAGAGGAGGAGUACAGGAG [Default title] (Eterna round: R96, puzzle: Exclusion NG 1)”, the “apparent KD of MS2 coat protein” value runs as follows: (input ligand: FMN 200 uM) 46.1 nM; under setting [1], 19.3 nM; (input ligand: none) 32.3 nM.
For the sequence “ACCUAACAUGAGGAUCACCCAUGUCAGGAUAUCCAAGCGAAAGCAAAAGCGAAAGCAAGGAGAAGGGACAGAGG [ChP 04-04-2015 #8] (puzzle: Exclusion 1)”, the “apparent KD of MS2 coat protein” value under setting [2] was 62.2 nM, the “apparent KD of MS2 coat protein” value under setting [3] amounted to 32.4 nM and the “apparent KD of MS2 coat protein” value under setting [4] is 28.4 nM.
With “GUAGAGUCAGGAUAUACGAGAUCGAAAGAUCAGUGAUCCUUACAUGAGGAUCACCCAUGUAGAAGGGACUCUAC [Omei mod 8 to Eli's favorate candidate (ch.parushev)] (Eterna round: R97, puzzle: Exclusion 2)”, the “apparent KD of MS2 coat protein” value (input ligand: FMN 200 uM) turned out to be 41.9 nM and the “apparent KD of MS2 coat protein” value (input ligand: none) was 388 nM.
On to “GUCAGCUCGUCAGGAUAUACAUGAUAGAUCGAUUAAUUAAUUAAUUUAACAUGAGGAUCACCCAUGUAGAAGGGACGAGCUGAU [ENG2/1-B2] (Eterna round: R96, puzzle: Exclusion NG 2)”, for which the “apparent KD of MS2 coat protein” value under setting [1] came to 59.2 nM.
As for “CCGUGCACGCUCCGGUCCUACAUGAGGAUCACCCAUGUGGUCCGGUGGCGUGGGUCGCCGGACUUGGCUCGUCUUGU [salish99_S_TOV1_R5_018] (Eterna round: R97, puzzle: Sensor, turn-off variant 1)”, the “apparent KD of MS2 coat protein” value amounted to 16.3 nM (input ligand: FMN 200 uM) and 17.4 nM (input ligand: none).
“CGUGACUGAGGAUAUCUAUGGUAUCACAUGAGGAUCACCCAUGUCCAGCGAAAGCUGGAGGGAGAAGGCAGUCACG [Fiskers Ex 5 - 32] (puzzle: Exclusion 5)”: the “apparent KD of MS2 coat protein” value runs as follows: under setting [2], 117 nM; under setting [3], 186 nM; under setting [4], 250 nM.
Turning to “AUAUUAACAUAGGAUAUCGAAUUUAUCAUUUAACGAGAAGGAUGAACAUGAGGAUCACCCAUGUGGUAUCAUGG [Mat - Exclusion 6 - JL Mod - D1] (puzzle: Exclusion 6)”, the “apparent KD of MS2 coat protein” value is, setting by setting: under setting [2], 171 nM; under setting [3], 144 nM; under setting [4], 249 nM.

(Values after the supplement of paper PMC9170038.)
